Assay: soluble on expression in E. coli; label from the status in PepcDB or PDB records

In the case of “MSLGNDNEKSTTKTSPDKIKFLETSELLTLNTTAEEDFASFTAQNQVFEGLYTLDQKDNFVPGVAGGMPEISADQTKYTIKLKKNAKWSDGSQVTADDFVYAWRRAVDPKTAPGYSALFKDSIKNATEINEGKLPVTDLGVVATDPTTLEITLKKPVPYFISLLSFETFFPQKESFVKKQGDKYGTDSAHTLYNGPFVMKDWGGNITNKWTYAKNDQYWDKDNVKVNEIDVQVAKDINAGVNLYNTNEADRVPLSGDFAKQYKDKKDFQTEKDALISYLRMNQKRDGKATPLANNSLRHALNLAVDKKQLTDRILGDGSFPANGLLPKDFVQNPTTGADFRTDSGDHLVYNKEEALKYWKQAQKELGTDKVTIELLGDDQETTKTIFAYLKAQFEDNLPGVTIKVKNMPSKSATQLTSDGNYDLSLAAWMPDFKDPWTYSSLFLSDYFNNHMSYNSPAYDRLVKSTDTTLATKPEERWNAFVASEKVLLDDDAAILPLYQHQTAVLQRTDITGVQKHAFGSPYSYKFIRVEKEGHHHHHH”, the “soluble on expression in E. coli” value was “soluble”.

For “MTGSTETRQKEVKEPQVDVSDDSDNEAVEQELTEEQRRVAEAAGLGDHIDKQAKQSRSEKKARKLFSKLGLKQVTGVSRVCIRKSKNILFVINKPDVFKSPGSDTYIIFGEAKIEDLTQHAQMSAIENLKPTREAPQLKTVEEDENEDVEEDSTGIEEKDIELVISQANTTRNKAIRALKEADNDIVNAIMSLTM”, the “soluble on expression in E. coli” value was “soluble”.

In the case of “MTESTSLDELFKDRYSQNDERYKKMSETGFEPVIVVHPWEPRRNNNYRNRGNFGGGRGGGYQHRDNSNRGGWVPRGGGQRGGYRGGWQDRGGHRGGGGWQDRGGQRQPYRGGDRRRQYND”, the “soluble on expression in E. coli” value was “soluble”.

For “MKARSKKSVGIVALALLMGKVYAAPTPAACPDVSVIKQHQEGQGFVYTAPAPNNQQWRGENPRGDAKDINSIAFKSANIRNRSAITGNAFVACDYEGNSSAGIRMSLETLKVATPVGKAWNGLSCSESNPSACTFEY”, the “soluble on expression in E. coli” value was “not soluble”.

In the case of “MGLTAGIVGLPNVGKSTLFNAITQAGAESANYPFCTIDPNVGIVEVPDERLNKLTELVEPKKTVPTVFEFTDIAGIVKGASKGEGLGNKFLSHIRQVDAICQVVRCFEDENITHVSGKVDPIDDIETINLELILADLESVDKRIERVAKLARQKDKEAVYEHEILVRLKEAFEEGKPARTVEFTEEQMKIVKGLHLLTTKEMLYVANVSEDDVIDPSENKYVQMVKEFAANENSQVIVVCAKIESEIAELDEEEKKVFLEELGIEESGLDQLIRAAYDLLGLATYFTAGVQEVRAWTFKQGMKAPQCAGVIHTDFERGFIRAETVSYEDLMTNGSMTAAKEAGKVRLEGKEYIVKDGDVMHFRFNV”, the “soluble on expression in E. coli” value was “soluble”.

For “VETISFSFSEFEPGNNDLTLQGAAIITQSGVLQLTKINQNGMPAWDSTGRTLYTKPVHIWDMTTGTVASFETRFSFSIEQPYTRPLPADGLVFFMGPTKSKPAQGYGYLGVFNNSKQDNSYQTLAVEFDTFSNPWDPPQVPHIGIDVNSIRSIKTQPFQLDNGQVANVVIKYDASSKILLAVLVYPSSGAIYTIAEIVDVKQVLPEWVDVGLSGATGAQRDAAETHDVYSWSFHASLPETND”, the “soluble on expression in E. coli” value was “soluble”.

With “MGSDKIHHHHHHMANVTPEIVKALFTGFGKNFKDGLAKAPSQYTAIATVIKSTTASNTYAWLGQMPKLTEWIGKRAITAIQSHGYAIVNKDWASGVEIKRTDIEDDNIGVYSPLVEELGRSAGEQPDELVFGALKGGFTTECYDKQYFFDTDHPVGANPDGTSPTSVSNITDDGTSVTADGAWYLLDCSRALKPLIFQQRKPATPAQMTDANAQKVFEDNVYTRCNVGYGFWQMAHAVKGKLNAENLWKAIKAMRAVHSDGGHKLGIKPTHIVVPTSLQEEAVKLLERELRVEDGAAVDNEFKNMKLTLIVADYL” the “soluble on expression in E. coli” value was “not soluble”.

With “MKFALQINEGPYQHQASDSAYQFAKAALEKGHEIFRVFFYHDGVNNSTRLTTPPQDDRHIVNRWAELAEQYELDMVVCVAAAQRRGIVDEGEASRNGKDATNIHPKFRISGLGQLVEAAIQADRLVVFGD” the “soluble on expression in E. coli” value was “soluble”.

With “GSHMTEAEYLANYDPKAFKAQLLTVDAVLFTYHDQQLKVLLVQRSNHPFLGLWGLPGGFIDETCDESLEQTVLRKLAEKTAVVPPYIEQLCTVGNNSRDARGWSVTVCYTALMSYQACQIQIASVSDVKWWPLADVLQMPLAFDHLQLIEQARERLTQKALYSLVPGFALSEPFTLPELQHVHEVLLGKPIQGKSFRRRVEQADLLIDTGLKRTERGRPANLYCLKPDTASYRFLRNLEC” the “soluble on expression in E. coli” value was “soluble”.

For “MICWGEQKRQADPGFFCRKIVEGVSQPIWLVSDTRRTSDIQWFQEAYGAVIQTVRVVASEQSRQQRGWVFTPGVDDAESECGLDNFGNFDWVIENHGDEQCLEDQLEHLLGFIQAKL”, the “soluble on expression in E. coli” value was “not soluble”.

For “GPGSMSTSKEAADQSRKFGFKESREQYQQRKRQEKQLKWTERLSKEDLGKLRIELDSLKRARFLAPQQNERKCLVHRMIRDLEAAENKEPKEETPVVATMPSALDSDSDDDIFSGKGTLTNDEHKRLFIPRSVRKKPEEKKCEKTAQQLAGEAERELLAAVHDDDDLDSFLDSLR”, the “soluble on expression in E. coli” value was “soluble”.

For “MSLKIAIVNDMPMAVEALRRALAFDPSHEVVWVATNGAEAVKYCAELTPDLILMDLIMPVMDGVEATRRIMAESPCAIVIVTVDRQQNVHRVFEAMGHGALDVVDTPALGAGNAQEAAAPLLRKILNIGWLIGQEGHHHHHH”, the “soluble on expression in E. coli” value was “not soluble”.

With “MGSDKIHHHHHHMARKKNTSDQSRSQAANTPIAGTYEGEYSVIELEADSYTTDGWLISINGVPSSHIVLGQPQALEFEYMRWIATGARAFIDAHQDASKLRITHLGGGACTMARYFADVYPQSRNTVVELDAELARLSREWFDIPRAPRVKIRVDDARMVAESFTPASRDVIIRDVFAGAITPQNFTTVEFFEHCHRGLAPGGLYVANCGDHSDLRGAKSELAGMMEVFEHVAVIADPPMLKGRRYGNIILMGSDTEFFSSNSTEASAITRELLGGGVPAQYKDESWVRKFASGAQARHDGVSTLQMPSDTPQHPAETPEHSNTQP” the “soluble on expression in E. coli” value was “not soluble”.

With “GPSPVGQQYHVEKFSGLRIRKPRVSSSEMERKMNGRKLIRLAQLQNKIATEKLEEEDWVTFGVIVKKITPQSSNNGKTFSIWRLNDLKDLDKYISLFLFGDVHKEHWKTDQGTVIGLLNANPMKPKEGTDEVCLSVDNPQKVLLMGDAVDLGTCKARKKNGDPCTQMVNLNDCEYCQYHVQAQYKKVSSKRADLQSSYSG” the “soluble on expression in E. coli” value was “soluble”.

In the case of “MSQISIILPTYNVEKYIARALESCINQTFKDIEIIVVDDCGNDKSIDIAKEYASKDDRIKIIHNEENLKLLRARYEGAKVATSPYIMFLDSDDYLELNACEECIKILDMGGGGKIDLLCFEAFITNAKKSIKKLNIKQGKYNNKEFTMQILKTKNPFWTMWAKIIKKDIYLKAFNMLNLKKEIKINMAEDALLYYPLTILSNEIFYLTQPLYTQHVNSNSITNNINSLEANIQEHKIVLNVLKSIKNKKTPLYFLIIYLLKIQLLKYEQNFNKRNINLIYYKINILYQKYQFKWKKFLYNLIP”, the “soluble on expression in E. coli” value was “not soluble”.

With “VRAPGVRAADGAGRVVLYLHGGAFVMCGPNSHSRIVNALSGFAESPVLIVDYRLIPKHSLGMALDDCHDAYQWLRARGYRPEQIVLAGDSAGGYLALALAQRLQCDDEKPAAIVAISPLLQLAKGPKQDHPNIGTDAMFPARAFDALAAWVRAAAAKNMVDGRPEDLYEPLDHIESSLPPTLIHVSGSEVLLHDAQLGAGKLAAAGVCAEVRVWPGQAHLFQLATPLVPEATRSLRQIGQFIRDATADSSLSPVHRSRYVAGSPRAASRGAFGQSPI” the “soluble on expression in E. coli” value was “not soluble”.

With “GGGGGGMKRFYIANEDEIKAGKTTDVYFLRTKKILEVKNIRKKVLADVTTTSLPNNWRWGVLVGVEEVAKLLEGIPVNVYAMPEGTIFHPYEPVLQIEGDYADFGIYETALLGMLSQASGIATAALRIKIAAKFKPVYSFGIRHMHPAIAPMIDRAAFIGGCDGVSGVLGAEMMGEKAVGTMPHALIITVGDQVKAWKYFDEVIEEEVPRIALVDTFYDEKVEAVMAAEALGKKLFAVRLDTPSSRRGNFRKIIEEVRWELKVRGYDWVKIFVSGGLDEEKIKEIVDVVDAFGVGGAIASAKPVDFALDIVEVEGKPIAKRGKLSGRKQVYRCENGHYHVVPANKKLERCPVCNAKVEPLLKPIIENGEIVVEFPKAREIREYVLEQAKKFNLEI” the “soluble on expression in E. coli” value was “soluble”.

For “MGSDKIHHHHHHAQVNDTIQRTTGNDLYQGITRKLPYWQMVTPHGVQVTFAKTVHIIFPSAVRYVDLGSNWIIAGKADGAENVIRVKAATEGFPGETNFSVICEDGSFYSFNARYAHEPEMLNIEMKDFLENGDTTDFSHTRMNIHFRELAGESPLLVKLIMQSIYKEDRREIRHLGCKRFGVQFLLKSVHSHNGLFYFHTETRNRSNVAFRTDFIRFKIVDKKVPKRTAIQERVIDPVRSYNEVLVTEGKSDVRTVYAVPQFTIPDDKLLVIELFEKDGGRHQTIRVENADLVAARQINELKIK”, the “soluble on expression in E. coli” value was “not soluble”.

For “MGYKPTQRDIVIIDFAPSKGYEIRKRRPALVMSKDSYNISTNLVIVCPITSLDKERPFLVPIYSEKLHTSDNAVSKVNTLQVYSLDYTEQAQRRIKYVDTLDEETFYEIAQKFLQNFSFAV”, the “soluble on expression in E. coli” value was “not soluble”.

With “MGSDKIHHHHHHMKAVVIVKRAGQERPDLEYQTVPDPKPEPNELLVSVRAAGINRIDLHRSTAHGAPAAGKPLVAGLEMSGEVVAVGENVHDFRTGDKVYGMTTGSYAELATIDHRYALPVPPAFSFDQATAVATVYPTAHNALVTNGQFAAGKTVLIQGVSSAVGIATLQIAKAMGAKCVVGTGRPNANIGKLAEAGLDRFLLNGTDNIPAEIMAMTDGRGVDTIVDMVGGPTIADNLESVALAGRIVSVGWVGGTKGEIDLDTLARKRVTLVGVSFRTRTVEEKTELFAQFRRDVYPLFVNGTLVPYIAATYHLSEAAAAQDAMAEDKHFGKILLHP” the “soluble on expression in E. coli” value was “not soluble”.

With “AKEKDTIRTEGVVTEALPNATFRVKLDSGPEILAYISGKMRMHYIRILPGDRVVVEITPYDPTRGRIVYRK” the “soluble on expression in E. coli” value was “soluble”.

In the case of “MGSDKIHHHHHHMNYLVYQSYGSKDILNECCYSILSLLKHGINKNETRIVIYTDQPEYFSFLPAATLEFVQMSADIIADYKGVHAFVHRLKIKILQDAVTRFQGTILYVDSDIYFLKSIEPLFASISKTNLLMCNNEGRIHTGGNRIFEKFSAFIKKNTDYLKQHHIPIPYDITMWNAGVIGFLSTEKELLEKVLYTNDTIYNKFQSHVVEQLSFSYQLQKQGTLNAATDYLYHYWNFKEFRIVLAEFFKYHLNRGSVEQMIQDIDSIRPDVLIKPKLEYETLPFLKKNIRKLGGKKNRWKFPAYTIGQAATI”, the “soluble on expression in E. coli” value was “not soluble”.

With “MDYHIQEEKILEVLKENVYGLRGSIAFSGGLDSSLLYVISDRNLVPYTVGYSFSHDVNRAKFVLSLLNGSGKYVTLDEINIENYVKYLKSEYPDINKVEISFELVLEILLENVDSDLLVTGQGADELFFGYKRSVNEMDNSLQMERLLKRTIPREKDMAKRQGKELVTPFLDDRILKLASEISPAYHCLYGGKKALREIAKIAGLPEEVYGYRKKAAQYGSGIDKALKSVSYFGLF” the “soluble on expression in E. coli” value was “not soluble”.

In the case of “MNLKDLLAHRENLMDSAKRARSAITDDMDPADAAQAVENVKSIISEIESTDEAIAARRGVSDVTQKLKGLTITERGTENDSAASRSLGEHFVKAAGDRLKNQAAGAHIEYSVPEYQVKEDAHSSPKDLVEGWGTFYQR”, the “soluble on expression in E. coli” value was “soluble”.

For “MGSDKIHHHHHHMERKTDSIDLAPLFHPDTIRLSRLAERLDDGPYHGGRIDPLALVITQREEATGQAGIDRYPMLQLAVGRAGMQVGQVDLGQLHPPVRSYLECRFHILKIVNLRHISIISRRNNSPEITLSHPKRQSPHALPYLCINIKKQHIMIRYKKYQNKNEKNVTTFNKWYARAVCEETVDIAALAEHMSTHNTPFSTGAIHGMLKDMVNCIKELLMDGKNVKIDDLGIFSVGIRSKGAVTPEDFSTQGNIIGVRLRARATGNLSSASLKLTAKLREYTEYSNGEVTPGGGGGDSESPDEI”, the “soluble on expression in E. coli” value was “not soluble”.

Reference: the DeepSol protein solubility set
